Numbering of substitutions follows the chain as printed. Names and notes keep the numbering of the source. Values joined by “and” are separate entries in the source; they are usually repeats but may differ in a detail not shown here. Equal values may be shown once. Read-outs that look alike come from different tables or passages of the source.
B1: PvvpM (AB316/AB317) (dsDNA)
DNA 1: ACACTTATCTTTAGTGACAAACTCATAAATAGCAAGTTCTCACACGGTC
DNA 2: GACCGTGTGAGAACTTGCTATTTATGAGTTTGTCACTAAAGATAAGTGT
B2: PluxC site E T4A (JDN44/JDN45) (dsDNA)
DNA 1: TCTAATTATAGTTTGATTTATTAATAATTAGT
DNA 2: ACTAATTATTAATAAATCAAACTATAATTAGA
B3: PluxC site E T4A,A17T (JCV1107/JCV1108) (dsDNA)
DNA 1: B2 DNA 1 with A10T
DNA 2: B2 DNA 2 with T23A
B4: PluxC site E A17T (JDN46/JDN47) (dsDNA)
DNA 1: B2 DNA 1 with A10T, A23T
DNA 2: B2 DNA 2 with T10A, T23A
B5: PvvpE (AB324/AB325) (dsDNA)
DNA 1: ATAAATCAAATTTGTAACTTTATTTCTGAGATGACTGTCCCATTTATCTTATTGATAAATCTGCGTAAAAAAGAAAAAGCACAATTTTATTACTAGTGTTT
DNA 2: AAACACTAGTAATAAAATTGTGCTTTTTCTTTTTTACGCAGATTTATCAATAAGATAAATGGGACAGTCATCTCAGAAATAAAGTTACAAATTTGATTTAT
B6: SmcR wild-type, untagged (Vibrio vulnificus) (natural protein)
chain: MDSIAKRPRTRLSPLKRKQQLMEIALEVFARRGIGRGGHADIAEIAQVSVATVFNYFPTREDLVDEVLNHVVRQFSNFLSDNIDLDLHAKENIANITNAMIELVVQDNHWLKVWFEWSASTRDEVWPLFVTTNRTNQLLVQNMFIKAIERGEVCDQHNPEDLANLFHGICYSLFVQANRTNNTAELSKLVSSYLDMLCIYKREHE
B7: SmcR wild-type, 6Xhis-tagged (Vibrio vulnificus) (natural protein)
chain: B6 chain
B8: SmcR N55I, untagged (Vibrio vulnificus) (natural protein)
chain: B6 chain with N55I

Key:
SmcR WT = biological target: T1, SmcR WT (Vibrio vulnificus, UniProt Q9L8G8 1-205); experiment: EMSA
T1 sequence: B6 chain

SmcR L139R = biological target: T2, SmcR L139R (Vibrio vulnificus, UniProt Q9L8G8 1-205, L139R); experiment: EMSA
T2 sequence: B6 chain with L139R

SmcR S76A = biological target: T3, SmcR S76A (Vibrio vulnificus, UniProt Q9L8G8 1-205, S76A); experiment: EMSA
T3 sequence: B6 chain with S76A

SmcR N142D = biological target: T4, SmcR N142D (Vibrio vulnificus, UniProt Q9L8G8 1-205, N142D); experiment: EMSA
T4 sequence: B6 chain with N142D

SmcR N55I = biological target: T5, SmcR N55I (Vibrio vulnificus, UniProt Q9L8G8 1-205, N55I); experiment: EMSA
T5 sequence: B6 chain with N55I

[1] = biological target: his-tagged V. harveyi RNAP alpha subunit (Vibrio harveyi, UniProt A0A0B4IMU9 1-330); experiment: BLI
SAXS [2] = biological target: the molecule itself; experiment: SAXS
SAXS [3] = biological target: the molecule itself; experiment: SAXS; remark: listed apart in the source

Binder	Kd (SmcR WT)	Kd (SmcR N55I)	further results
B1	0.143 nM	0.266 nM	Kd (SmcR L139R): 0.322 nM; Kd (SmcR S76A): 0.167 nM; Kd (SmcR N142D): 0.568 nM
B2	1.53 nM	13.4 nM	
B3	2.04 nM	1.91 nM	
B4	2.71 nM	44.6 nM	
B5	2.18 nM	142 nM	Kd (SmcR L139R): 3.53 nM; Kd (SmcR S76A): 0.363 nM; Kd (SmcR N142D): 6.68 nM
B6			Kd [1]: 142 nM
B7			stoichiometry N (SAXS [2]): 2 and 4
B8			stoichiometry N (SAXS [3]): 2 and 4; Kd [1]: 160 nM

From PMC8191795 (Nucleic Acids Research, 2020)
